Assay results as given in patent US7727950B2, “Methods and reagents for assaying protein kinase activity” (The University of Dundee, priority 2002, dated 2010).

Assays:
[1] = system: CC(C)C[C@H](NC(=O)[C@H](CCCNC(=N)N)NC(=O)[C@H](CCCNC(=N)N)NC(=O)[C@@H](N)CCCNC(=N)N)C(=O)N[C@@H](CO)C(=O)N[C@@H](Cc1ccccc1)C(=O)N[C@@H](C)C(=O)N[C@@H](CCC(=O)O)C(=O)N1CCC[C@H]1C(=O)NCC(=O)O; test: purified protein, by the assay type; conditions: other: PKA; Standard Substrate = LRRASLG; 30.0 °C
[2] = system: T1, CC(C)C[C@H](NC(=O)[C@H](CCCCN)NC(=O)[C@@H](N)CCCCN)C(=O)N[C@@H](CC(N)=O)C(=O)N[C@@H](CCCNC(=N)N)C(=O)N[C@H](C(=O)N[C@@H](CC(C)C)C(=O)N[C@@H](CO)C(=O)N[C@@H](Cc1ccccc1)C(=O)N[C@@H](C)C(=O)N[C@@H](CCC(=O)O)C(=O)N1CCC[C@H]1C(=O)NCC(=O)O)[C@@H](C)O; test: Kinetic parameters for peptide phosphorylation, radioactive filter-binding assay; assay type: biochemical, human; conditions: other: PKBα; Standard Substrate = GRPRTSSFAEG; 30.0 °C
T1 construct: made in house; host or cells: Sf21 insect cells
Source text: Apart from the AMP-activated protein kinase (AMPK, a gift from Drs S. Hawley and D. G. Hardie), cGMP-dependent protein kinase (PKG, a generous gift from Drs Susan Lohmann and Ulrich Walter, University of Wurzburg, Germany) and the catalytic subunit of cyclic AMP-dependent protein kinase (PKA, a gift from Dr C. Smythe), which were isolated from rat liver, bovine lung and bovine heart, respectively, all other protein kinases were expressed as either GST-fusion or His-tagged proteins (by a person, a person, Dr A. Paterson or a person, in this Division). The expressed proteins all corresponded to the human sequences apart from the rat Rho-dependent protein kinase (ROCK-II) and rat mitogen-activated protein kinase (MAPK) activated kinase-1a (MAPKAP-K1a, also called RSK). […]
All protein kinase assays were linear with respect to time. […] All papers were subsequently washed a further three times in phosphoric acid, once in acetone, then dried and counted for radioactivity. […] The plates were then washed six times (five min per wash) in PBS, 0.1% Tween 20 and binding of the phospho-specific antibody detected by incubating the plates with peroxidase-conjugated anti-sheep antibodies (Pierce). […] Signals were quantitated on LAS-1000IR software (FujiFilm). […]

[3] = system: CC(C)C[C@H](NC(=O)[C@@H](NC(=O)[C@H](CCCNC(=N)N)NC(=O)[C@H](C)NC(=O)[C@@H](N)CCCNC(=N)N)[C@@H](C)O)C(=O)N[C@@H](CO)C(=O)N[C@@H](Cc1ccccc1)C(=O)N[C@@H](C)C(=O)N[C@@H](CCC(=O)O)C(=O)N1CCC[C@H]1C(=O)NCC(=O)O; test: purified protein, by the assay type; conditions: other: CaMKII; Standard Substrate = MHRQETVDCLK; 30.0 °C
Experimental: All protein kinase assays were linear with respect to time. […] The assays with the three generic peptides introduced in this example were carried out in the same buffers as follow. Unlabelled or biotinylated substrate peptides were assayed for 10 min at 30° C. in 50 μl incubations, in the presence of 0.1 mM [y^32P]ATP or unlabelled ATP. Radioactive assays were terminated by spotting 40 μl of each incubation on to phosphocellulose paper followed by immersion in 75 mM phosphoric acid. All papers were subsequently washed a further three times in phosphoric acid, once in acetone, then dried and counted for radioactivity. Non-radioactive assays were terminated by the addition of EDTA to a final concentration of 20 mM, then diluted with an equal volume of phosphate-buffered saline (PBS), containing 0.1% Tween 20 and the biotinylated peptides captured by incubation for 60 min on pre-washed, 96 well Streptavidin coated plates (Equilon A/S, Vedbaek, Denmark). […] The plates were then washed six times (five min per wash) in PBS, 0.1% Tween 20 and binding of the phospho-specific antibody detected by incubating the plates with peroxidase-conjugated anti-sheep antibodies (Pierce). […] Signals were quantitated on LAS-1000IR software (FujiFilm).

## PKA (Bos taurus)
[1]
  Km: 30 µM

## PKBα (Homo sapiens)
[2]
  Km: 2 µM

## CaMKII (Homo sapiens)
[3]
  Km: 300 µM
